The results in this text go back to patent US20030229203.

Targets include Eotaxin (UniProt P51671); IP-10 (UniProt P02778); RANTES(1-68) (UniProt P13501); MCP-2 (UniProt P80075); MCP-1 (UniProt P13500).

Chain of Eotaxin (P51671 24-97): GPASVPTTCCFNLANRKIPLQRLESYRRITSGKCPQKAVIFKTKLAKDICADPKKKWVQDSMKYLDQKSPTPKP
Chain of MCP-2 (P80075 24-99): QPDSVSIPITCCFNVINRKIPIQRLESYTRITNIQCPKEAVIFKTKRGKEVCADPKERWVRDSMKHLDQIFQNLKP
Chain of MCP-1 (P13500 whole entry, looked up): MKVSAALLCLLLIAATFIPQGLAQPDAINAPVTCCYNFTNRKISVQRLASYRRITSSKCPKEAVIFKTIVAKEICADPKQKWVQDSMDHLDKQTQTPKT
Chain of RANTES(1-68) (P13501 24-91): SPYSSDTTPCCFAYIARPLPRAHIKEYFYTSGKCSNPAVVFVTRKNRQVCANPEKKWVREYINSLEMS
Chain of IP-10 (P02778 whole entry, looked up): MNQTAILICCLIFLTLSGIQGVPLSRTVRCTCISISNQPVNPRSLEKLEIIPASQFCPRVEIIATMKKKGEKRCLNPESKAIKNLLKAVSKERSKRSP

As to “enzymatically active (E+) recombinant soluble human CD26 (sCD26)”, the “CD26 cleavage (ES-MS after overnight digestion with sCD26)” value in the data set with Eotaxin is “Yes”; with IP-10 it was “Yes”; with MCP-2, “Yes”; in the data set with MCP-1 it was “No”. In addition, the “hydrolysis of rhRANTES by sCD26 (ES-MS of cleavage products)” value with RANTES(1-68) was 100 nM rhRANTES underwent partial to complete hydrolysis when incubated overnight at 37 °C with increasing amounts (25 to 250 (U) of sCD26.
